{
  "source": "paper PMC12819141",
  "about": "“RNase MRP subunit composition and role in 40S ribosome biogenesis” (Nature Structural & Molecular Biology, 2025)",
  "binders": {"B1": {"name": "RMP24 (coexpressed with RPP29 in bacteria) (natural protein, human, UniProt Q32NC0 1-220, looked up)", "chain": "MRQKHYLEAAARGLHDSCPGQARYLLWAYTSSHDDKSTFEETCPYCFQLLVLDNSRVRLKPKARLTPKIQKLLNREARNYTLSFKEAKMVKKFKDSKSVLLITCKTCNRTVKHHGKSRSFVSTLKSNPATPTSKLSLKTPERRTANPNHDMSGSKGKSPASVFRTPTSGQSVSTCSSKNTSKTKKHFSQLKMLLSQNESQKIPKVDFRNFLSSLKGGLLK", "notes": "C18orf21 (RMP24), human; codon-optimized bicistronic cassette with RPP29 in pGEX-6P-1; The pGEX-6P-1 vector adds GST to one of the two chains; also called C18orf21; full-length RMP24; source: E. coli BL21-DE3, coexpressed with RPP29, purified (Glutathione-Agarose, S200 increase)"}},
  "molecular_target": "T1, RPP29 (coexpressed with RMP24 in bacteria) (human, UniProt O95707 1-220)",
  "T1 construct": "RPP29 (POP4), human; codon-optimized bicistronic cassette with C18orf21/RMP24 in pGEX-6P-1; The pGEX-6P-1 vector adds GST to one of the two chains; Elution was by PreScission protease or by reduced glutathione; also called POP4; source: E. coli BL21-DE3, coexpressed with RMP24, purified (Glutathione-Agarose, S200 increase)",
  "T1 sequence": "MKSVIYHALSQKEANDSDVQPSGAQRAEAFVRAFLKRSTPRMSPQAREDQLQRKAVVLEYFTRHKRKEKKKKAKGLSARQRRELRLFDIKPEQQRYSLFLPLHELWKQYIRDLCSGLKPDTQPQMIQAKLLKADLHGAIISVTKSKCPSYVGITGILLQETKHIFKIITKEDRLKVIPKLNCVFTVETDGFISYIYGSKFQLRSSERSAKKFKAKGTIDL",
  "assay": "SEC; RMP24 and RPP29 coexpressed in E. coli, isolated on Glutathione-Agarose, then passed over a Superdex S200 increase 10/300 GL column in 25 mM Tris HCl pH 8, 100 mM NaCl, 1 mM DTT; peak fractions on Coomassie-stained SDS–PAGE and LC–MS",
  "settings": "both partners purified",
  "data": [
    {"binder": "B1", "values": [
      {"measurement": "binding result", "value": "binds"}
    ]}
  ]
}
